1 compound from PMC10388305, “Synthesis and Evaluation of a Monomethyl Auristatin E—Integrin αvβ6 Binding Peptide–Drug Conjugate for Tumor Targeted Drug Delivery” (Journal of Medicinal Chemistry, 2023) can be followed below.

Data set [1] can be described thus: Serum stability in mouse serum. The class given is in vitro ADME. As to conditions: 37 °C, ethanol precipitation, radio RP-HPLC. As to the method: (§1) The serum stability of [^64Cu]PDC-1 was measured in both human and mouse serum at 37 °C at 1, 4, and 24 h.
(§2) Mouse serum or human serum (0.5 mL) was combined with an aliquot of [^64Cu]PDC-1 (≤25 μL, 3.9–4.7 MBq) and incubated at 37 °C. At each time point (1, 4, and 24 h), an aliquot (50–200 μL) was taken, proteins precipitated with absolute ethanol and removed by centrifugation at 1500g for 4 min. The ethanol solution was diluted with water (1 mL) and analyzed by RP-HPLC.

The nature of data set [2]: Serum stability in human serum. In kind it is in vitro ADME. As to conditions: 37 °C, ethanol precipitation, radio RP-HPLC. As to the method:
as §1, §2

A further data set has as its system DX3puroβ6 (+) cells. In words: Cell binding assay, DX3puroβ6. The class given is cell-based. Conditions: 1 h, 37 °C, γ-counter, n = 3. An excerpt:
Binding to cells with minimal to no expression of integrin αvβ6 was low at 4.4 ± 0.1% to DX3puro cells and 7.9 ± 0.4% to pancreatic MIA PaCa-2 cells. Binding of [^64Cu]PDC-1 to DX3puroβ6 (+) and BxPC-3 (+) was reduced by adding increasing amounts of DOTA-PDC-1, illustrating that the αvβ6-selective uptake could be blocked (Figure S3). Internalization of [^64Cu]-PDC-1 into cells was high with >50% of the bound radioactivity internalized for all cells expressing the integrin αvβ6. In comparison, cell binding of [^64Cu]2 to DX3puroβ6 (+) cells was 58.8 ± 2.3, and 3.3 ± 0.4% to the DX3puro (−) cells.
Cell binding and internalization assay. Binding and internalization were determined as previously described. […] The fraction of bound radioactivity was determined with a γ-counter (by measuring cell pellet and combined supernatants). To determine the fraction of internalized radioactivity, the cells were re-pelleted, and re-suspended in acidic wash buffer (0.2 M sodium acetate, 0.5 M sodium chloride, pH = 2.5, 300 μL, 4 °C, 5 min) to release surface bound activity, followed by a wash with PBS (300 μL). The internalized fraction was determined with a γ-counter (cell pellet vs. radioactivity released into supernatant). A Wizard 1470 or Wizard 2 2470 automatic γ-counter (Perkin-Elmer, Waltham, MA) was used to measure radioactivity samples. […]

A short description of data set [3]: Biodistribution, both tumor models. As to conditions: female, athymic nude, mouse, iv, total radioactivity; for tissue uptake: all time points. In kind it is in vivo, mice. As to the method:
(§3) Aliquots of the formulated [^64Cu]PDC-1 in isotonic 0.9% saline (4.81–5.74 MBq, 1.7–2.1 μg, 0.26–0.31 nmol, 100 μL, pH 7.2) were injected i.v. as described above. Following the conscious uptake period, the mice were anesthetized (5% isoflurane), euthanized, and dissected (n ≥ 3/model/time point [4, 24, and 48 h]; the 48 h time point also included the imaging animals sacrificed after the PET scans). Tissues were collected, washed, weighed, and radioactivity measured in a γ-counter. Calibrated, decay-corrected radioactivity was expressed as the percentage of injected dose per gram of tissue (% ID/g). Data are reported as mean ± SD. […] For in vivo blocking studies, DOTA-2 (50 mg/kg, 205 nmol, 1.4 mg in 100 μL 0.9% saline) was injected i.v. into two animals/tumor model 10 min prior to [^64Cu]PDC-1. The animals were sacrificed after 4 h, tissues collected, washed, weighed, and radioactivity measured in a γ-counter.

Data set [4] relates to DX3puroβ6/DX3puro and BxPC-3 xenograft tumor models. In words: Biodistribution, both tumor models. As to conditions: DOTA-2 (205 nmol) 10 min prior; 4 h p.i.; both models. The class given is in vivo, mice. On the procedure:
as §3

Where two headings read alike, the source gives them in different places.

Take `CC[C@H](C)[C@@H]([C@@H](CC(=O)N1CCC[C@H]1[C@H](OC)[C@@H](C)C(=O)N[C@H](C)[C@@H](O)c1ccccc1)OC)N(C)C(=O)[C@@H](NC(=O)[C@H](C(C)C)N(C)C(=O)OCc1ccc(NC(=O)[C@H](CCCNC(N)=O)NC(=O)[C@@H](NC(=O)CCOCCOCCNC(=O)CCN2C(=O)CC(SC[C@H](NC(=O)CN3CCN(CC(=O)O)CCN(CC(=O)O)CCN(CC(=O)O)CC3)C(=O)NCCOCCOCCOCCOCCOCCOCCOCCOCCOCCOCCOCCOCCOCCOCCOCCOCCOCCOCCOCCOCCOCCOCCOCCOCCOCCOCCOCCOCCC(=O)N[C@@H](CC(N)=O)C(=O)N[C@@H](C)C(=O)N[C@H](C(=O)N3CCC[C@H]3C(=O)N[C@@H](CC(N)=O)C(=O)N[C@@H](CC(C)C)C(=O)N[C@@H](CCCNC(=N)N)C(=O)NCC(=O)N[C@@H](CC(=O)O)C(=O)N[C@@H](CC(C)C)C(=O)N[C@@H](CCC(N)=O)C(=O)N[C@H](C(=O)N[C@@H](CC(C)C)C(=O)N[C@@H](C)C(=O)N[C@@H](CCC(N)=O)C(=O)N[C@@H](CCCNC(=N)N)C(=O)N[C@H](C(=O)N[C@@H](C)C(=O)N[C@@H](CCCNC(=N)N)C(=O)N[C@H](C(=O)NCCOCCOCCOCCOCCOCCOCCOCCOCCOCCOCCOCCOCCOCCOCCOCCOCCOCCOCCOCCOCCOCCOCCOCCOCCOCCOCCOCCOCCC(N)=O)[C@@H](C)O)C(C)C)C(C)C)C(C)C)C2=O)C(C)C)cc1)C(C)C` (stereo partly drawn) [[^64Cu]PDC-1, metal not drawn]: the share remaining at 1 h is 89% in data set [1] (1 h) and > 98% in data set [2] (1 h). For the same compound, the fraction remaining at 4 h was 49% in data set [1] (4 h) and > 98% in data set [2] (4 h). Further, the amount remaining at 24 h amounted to 3% in data set [1] (24 h) and 89% in data set [2] (24 h). In the data set with DX3puroβ6 (+) cells, this compound showed a Cell binding of 67.0 ± 2.3%. For the same compound, the excreta dose per gram or mL at 4 h in data set [3] (faeces, 4 h, read-out: Fecal matter) came to 12 %ID/g. For the same compound, the excreta dose per gram or mL at 48 h in data set [3] (faeces, 48 h, read-out: Fecal matter) came out at 1.5 %ID/g. The tissue uptake at 4 h in data set [3] (kidney, 4 h, both models, read-out: Kidney uptake) is 50 to 64 %ID/g; in data set [3] (large intestines, 4 h, read-out: Large intestines uptake) it was 6 %ID/g; in data set [3] (small intestines, 4 h, read-out: Small intestines uptake), 4 to 5 %ID/g; in data set [3] (stomach, 4 h, read-out: Stomach uptake), 9 %ID/g. For the same compound, the tissue uptake at 48 h in data set [3] (kidney, 48 h, both models, read-out: Kidney uptake) was ≤ 25 %ID/g; in data set [3] (large intestines, 48 h, read-out: Large intestines uptake), 3 %ID/g. For the same compound, the tissue uptake in data set [3] (muscle, read-out: Muscle uptake) was ≤ 0.9 %ID/g; in data set [3] (pancreas, read-out: Pancreas uptake) it was ≤ 0.5 %ID/g. The “Reduction of uptake in the αvβ6 (+) tumors by blocking” value in data set [4] was 87–91%.

As a reminder, the fraction remaining is what is left of the initial amount, in per cent. A low value points to a greater loss.
